Key:
[1] = test system: OVA-specific CD8+ T cells; experiment: Cytokines produced in CD8+ T-cell cultures (ELISA); format: in vivo, mice; conditions: CD8+ OT-1 cells
Description: (§1) Four days after injecting with OVA or OVA+LPS, 2.5×10^5 popliteal lymph node cells (footpad injections) or splenocytes (intraperitoneal injections) were plated in triplicate in 96-well flat bottomed plates (Costar, Cambridge, Mass.) in 200 μl of RPMI complete medium (GIBCO BRL, Grand Island, N.Y., US) supplemented with 5% fetal bovine serum (FBS), together with different concentrations (0-500 μg/mL of OVA, or OVA peptide (SIINFEKL, SEQ ID NO:1) (New England Peptide Incorporated, Fitchburg, Mass.). Proliferative responses were assessed after 72 hours of culture in a humidified atmosphere of 5% CO2 in air. Cultures were pulsed with 1.0 μCi [^3H] thymidine for 12 hours, and incorporation of the radionucleotide was measured by β-scintillation spectroscopy (Pulendran, B., et al. 1999. “Distinct dendritic cell subsets differentially regulate the class of immune response in vivo,” Proc Natl Acad Sci USA 96:1036-1041). For cytokine assays, aliquots of culture supernatants were removed after 72 hours, pooled, and assayed for the presence of IFNγ, IL-2, IL-4, IL-5, IL-10, and IL-13 by ELISA.
(§2) IFNγ, IL-2, IL-10, IL-4, IL-5, IL-6, IL-12, IL-13 and TNFα were quantified by ELISA kits from Pharmingen (San Diego, Calif.) using manufacturer's instructions dated 2000.
We next examined the cytokines produced in CD8+ T-cell cultures by ELISA.

[2] = test system: OVA-specific CD4+ T cells; experiment: Clonal expansion of OVA-specific CD4+ T cells in vivo (OT-2 adoptive transfer, flow cytometry); set-up: species or system mice; conditions: OVA with or without LPS adjuvant; footpad or intraperitoneal; Day 4
From the text: OT-2 TCR transgenic mice (strain 426-6), generated by Dr. W. Heath (Walter & Eliza Hall Institute, Melbourne, Australia) and Dr. F. Carbone (Monash University, Melbourne, Australia) were obtained from Dr. J. Kapp (Emory University, Atlanta). OT-1 TCR transgenic mice were purchased from Jackson Laboratory (Bar Harbor, Me.). C57BL/6 mice, B6.PL.THY1^a (B6.PL) mice, and C3H/HeJ mice were purchased from Jackson Laboratory (Bar Harbor, Me.). C3H/HeN mice were purchased from Harlan Sprague Dawley (Indianapolis, Ind.). All mice were kept in microisolator cages in a specific-pathogen free facility. For adoptive transfers, age matched, male C57BL/6 or B6.PL.THY1^a recipients were given 2.5×10^6 of either OT-2 cells or OT-1 TCR transgenic T cells intravenously.
Reconstituted mice (3-5 per group) were injected either intraperitoneally, or in the footpad, with either 2 mg OVA in saline, 2 mg OVA+25 μg E. coli LPS, or 2 mg OVA+25 μg P. gingivalis LPS. Endotoxin activity in saline was measured by LAL QCL-1000 kit, and observed to be below the detection limit. […]
The reconstituted mice were injected with one of the following compositions: soluble endotoxin-free OVA, E. coli LPS alone, P. gingivalis LPS alone, OVA+E. coli LPS, or OVA+P. gingivalis LPS. […] The CD4+ OVA-specific T cell response in either the draining lymph nodes or in the spleen was monitored by flow cytometry (FIG. 2A).

[3] = test system: OVA-specific CD4+ T cells; experiment: IL-13 production by antigen-specific T cells in restimulated cultures (ELISA); format: in vivo, B6.PL.THY1a (B6.PL) mice; conditions: route not distinguished (intraperitoneally or subcutaneously)
Description: B6.PL.THY1^a (B6.PL) mice reconstituted with OT-2 transgenic T cells were immunized with soluble OVA, E. coli LPS alone, P. gingivalis LPS alone, OVA+E. coli LPS, or OVA+P. gingivalis LPS, either subcutaneously in the footpad or intraperitoneally. Four days later, the draining popliteal lymph nodes (subcutaneous route), or spleens (intraperitoneal route) were removed, and single cell suspensions were restimulated with varying concentrations of OVA (0-500 μg/mL) for 72 hours, and pulsed with [^3H] for 12 hours. The cell populations were then assayed for IL-13 with ELISA. The data presented in FIG. 10 are representative of two independent experiments.
Four days after injecting with OVA or OVA+LPS, 2.5×10^5 popliteal lymph node cells (footpad injections) or splenocytes (intraperitoneal injections) were plated in triplicate in 96-well flat bottomed plates (Costar, Cambridge, Mass.) in 200 μl of RPMI complete medium (GIBCO BRL, Grand Island, N.Y., US) supplemented with 5% fetal bovine serum (FBS), together with different concentrations (0-500 μg/mL of OVA, or OVA peptide (SIINFEKL, SEQ ID NO:1) (New England Peptide Incorporated, Fitchburg, Mass.). Proliferative responses were assessed after 72 hours of culture in a humidified atmosphere of 5% CO2 in air. […]

[4] = test system: OVA-specific CD4+ T cells; experiment: Cytokine production by antigen-specific T-helper cells in restimulated cultures (ELISA); format: in vivo, mice; conditions: CD4+ OT-2 system; culture supernatants after 72 hours OVA restimulation
Description: as §1, §2
Cytokine production by antigen-specific T cells was measured by assaying the culture supernatants from the single cell suspensions of the draining lymph nodes described above for IL-2, IFNγ, IL-4, IL-10 and IL-5.

B1: OVA: Chicken OVALBUMIN (Sigma) in PBS, depleted of the endotoxin activity; model soluble protein antigen (protein, UniProt P01012 2-386, looked up)
Ovalbumin: GSIGAASMEFCFDVFKELKVHHANENIFYCPIAIMSALAMVYLGAKDSTRTQINKVVRFDKLPGFGDSIEAQCGTSVNVHSSLRDILNQITKPNDVYSFSLASRLYAEERYPILPEYLQCVKELYRGGLEPINFQTAADQARELINSWVESQTNGIIRNVLQPSSVDSQTAMVLVNAIVFKGLWEKAFKDEDTQAMPFRVTEQESKPVQMMYQIGLFRVASMASEKMKILELPFASGTMSMLVLLPDEVSGLEQLESIINFEKLTEWTSSNVMEERKIKVYLPRMKMEEKYNLTSVLMAMGITDVFSSSANLSGISSAESLKISQAVHAAHAEINEAGREVVGSAEAGVDAASVSEEFRADHPFLFCIKHIATNAVLFFGRCVSP
- IFNγ production [1]: did not secrete significant levels
- IL-2 production [1]: did not secrete significant levels
- IL-5 production [1]: did not secrete significant levels
- IL-10 production [1]: did not secrete significant levels
- clonal expansion of OVA-specific CD4+ T cells [2]: significant clonal expansion
- IL-13 production [3]: little, if any
- IFNγ production [4]: little, if any
- IL-2 production [4]: little, if any
- IL-4 production [4]: little, if any
- IL-5 production [4]: little, if any
- IL-10 production [4]: little, if any

Reference: patent publication US6818221B2, “Adjuvants and processes to induce a specific type of immune response” (Baylor Research Institute, priority 2000, dated 2004)
